Reference: patent publication US20260139028A1 (University of California, published 2026)
Where “and” joins values, the source holds several entries; their conditions need not be identical. Equal entries are not always repeated.

Assays:
[1] = target: integrins on CHO cells (α5β1+ and αvβ3 low), PSGL-1 negative; experiment: cell-based or functional assay
soluble integrin αvβ3 = target: T1, soluble integrin αvβ3 (UniProt P06756 31-992; P05106 27-718); experiment: ELISA-type, coated proteins, soluble integrin
T1 construct: Soluble integrin used at 1 µg/ml; also called soluble αvβ3

[2] = target: T2, soluble recombinant integrin αIIbβ3 (UniProt P08514 32-993; P05106 27-718); experiment: ELISA-type, coated proteins, soluble integrin
T2 construct: Bought (AgroBio), used at 1 µg/ml; also called soluble αIIbβ3

T1 sequence (P06756 31-992, chain 1 of 2): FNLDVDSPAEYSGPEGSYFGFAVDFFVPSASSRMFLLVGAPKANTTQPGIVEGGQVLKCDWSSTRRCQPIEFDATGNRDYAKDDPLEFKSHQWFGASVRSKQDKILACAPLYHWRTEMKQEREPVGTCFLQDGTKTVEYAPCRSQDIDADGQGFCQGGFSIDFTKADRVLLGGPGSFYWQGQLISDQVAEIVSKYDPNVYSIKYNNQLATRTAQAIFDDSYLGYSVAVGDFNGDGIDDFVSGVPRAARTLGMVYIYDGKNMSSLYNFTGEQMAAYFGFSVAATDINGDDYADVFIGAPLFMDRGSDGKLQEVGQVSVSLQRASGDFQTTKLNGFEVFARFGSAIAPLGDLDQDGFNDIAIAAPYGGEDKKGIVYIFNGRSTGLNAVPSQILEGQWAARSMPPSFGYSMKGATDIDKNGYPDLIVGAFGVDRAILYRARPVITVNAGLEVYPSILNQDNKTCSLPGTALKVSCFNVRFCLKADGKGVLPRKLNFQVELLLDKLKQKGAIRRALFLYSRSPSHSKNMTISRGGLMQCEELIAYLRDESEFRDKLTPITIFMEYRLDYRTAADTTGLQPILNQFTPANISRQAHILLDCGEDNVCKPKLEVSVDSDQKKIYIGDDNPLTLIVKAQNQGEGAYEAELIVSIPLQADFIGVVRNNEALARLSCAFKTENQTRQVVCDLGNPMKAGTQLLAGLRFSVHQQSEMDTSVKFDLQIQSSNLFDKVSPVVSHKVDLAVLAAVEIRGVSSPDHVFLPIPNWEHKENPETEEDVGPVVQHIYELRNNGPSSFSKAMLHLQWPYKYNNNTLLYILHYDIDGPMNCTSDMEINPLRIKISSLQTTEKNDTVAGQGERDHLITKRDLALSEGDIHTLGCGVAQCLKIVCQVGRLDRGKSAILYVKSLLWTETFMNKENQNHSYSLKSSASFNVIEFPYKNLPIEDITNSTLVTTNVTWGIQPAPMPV
T1 sequence (P05106 27-718, chain 2 of 2): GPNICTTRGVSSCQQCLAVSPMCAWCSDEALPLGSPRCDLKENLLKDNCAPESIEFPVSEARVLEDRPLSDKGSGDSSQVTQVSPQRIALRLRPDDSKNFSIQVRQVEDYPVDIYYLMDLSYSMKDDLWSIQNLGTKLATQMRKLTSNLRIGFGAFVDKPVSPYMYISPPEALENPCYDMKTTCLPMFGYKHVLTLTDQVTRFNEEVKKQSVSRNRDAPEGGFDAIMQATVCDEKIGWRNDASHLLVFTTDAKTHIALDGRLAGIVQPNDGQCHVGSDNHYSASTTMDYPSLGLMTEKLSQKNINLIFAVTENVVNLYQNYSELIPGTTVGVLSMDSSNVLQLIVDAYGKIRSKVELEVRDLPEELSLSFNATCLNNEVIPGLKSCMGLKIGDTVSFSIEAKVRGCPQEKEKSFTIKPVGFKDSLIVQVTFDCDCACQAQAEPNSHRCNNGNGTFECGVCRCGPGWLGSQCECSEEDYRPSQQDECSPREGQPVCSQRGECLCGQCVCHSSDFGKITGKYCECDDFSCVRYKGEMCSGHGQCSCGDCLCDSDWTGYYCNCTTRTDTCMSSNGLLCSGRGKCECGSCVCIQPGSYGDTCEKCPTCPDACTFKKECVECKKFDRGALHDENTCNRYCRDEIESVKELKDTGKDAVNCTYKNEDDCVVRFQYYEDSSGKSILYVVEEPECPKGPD

| adhesion of CHO cells to immobilized lectin domain [1] | fold binding against the combined lectin and EGF-like domains (soluble integrin αvβ3) [fold] | fold binding against the combined lectin and EGF-like domains [2] [fold] | Binder |
| --- | --- | --- | --- |
| 70% and > 90% | ~2 | ~2 | C-type lectin domain of CD62P (P-selectin), wild type, residues 1-117 (ligand, not shown: small tags and cut ends, also called the lectin domain; CD62P lectin domain) WTYHYSTKAYSWNISRKYCQNRYTDLVAIQNKNEIDYLNKVLPYYSSYYWIGIRKNNKTWTWVGTKKALTNEAENWADNEPNNKRNNEDCVEIYIKSPSAPGKWNDEHCLKKKHALC |
| 60% |  |  | CD62P lectin domain mutant R16E/K17E, P16109 42-158 (ligand, not shown: small tags and cut ends) WTYHYSTKAYSWNISEEYCQNRYTDLVAIQNKNEIDYLNKVLPYYSSYYWIGIRKNNKTWTWVGTKKALTNEAENWADNEPNNKRNNEDCVEIYIKSPSAPGKWNDEHCLKKKHALC |
